What all share (format): cell-based, human
In assay [1] the test system is ERK1/2. The assay can be described thus: Western blotting of ERK1/2 phosphorylation in HUVECs. The following applies: ML-1 100 ng/ml. How it is done: (§1) FIGS. 6A-6D. Kinetic activation of ERK1/2 by ML-1 in PBECs (FIG. 6A) and HUVECs (FIG. 6B). The cells were incubated with or without ML-1 (100 ng/ml) for different time points as indicated. Western blotting analysis was performed by using antibodies against different MAP kinases as described in Example 8. FIGS. 6C and 6D. Effect of PD98059 on ML-1-induced phosphorylation of ERK1/2 in PBECs (FIG. 6C) and HUVECs (FIG. 6D). The cells were preincubated with PD98059 ([…]) or DMSO vehicle control for 1 hour, followed by stimulation of PBECs and HUVECs with medium or ML-1 for 20 minutes or 10 minutes, respectively. The results shown are representative of three separate experiments.
(§2) For analysis of activation of MAP kinases, PBECs were treated with IL-17 (100 ng/ml) for various time periods, with or without the MEK 1/2 inhibitor PD98059 ([…]; Calbiochem, La Jolla, Calif.) (15), the p38 inhibitor SB202190 (0.5-10 μM; ref. 16), or a vehicle control, DMSO (Me2SO) for 1 hour. […] Following the treatment, the cells were washed with ice-cold PBS. Cell pellets were immediately lysed in cold lysis buffer [20 mM Tris (pH 7.4), 4 mM EDTA, 2 mM EGTA, 1 mM PMSF, […] aprotinin, 200 mg/ml leupeptin, 50 mM NaF, 5 mM NaRP2O7, 1 mM Na3VO4, and 1% Nonidet P40; all purchased from Sigma]. Extracts (1×10^6 cell equivalents/lane) were suspended with an equal volume of 2× loading buffer [0.1 M Tris-HCl (pH 6.8)], 4% SDS, 0.005% bromophenol blue, and 20% glycerol) containing 2-ME (0.7 M) and subjected to 4-20% Tris-glycine gel electrophoresis (NOVEX, San Diego, Calif.). Gels were then transferred to PVDF membranes (BIO-RAD, Hercules, Calif.) with a Trans Blot apparatus (NOVEX). The membranes were immersed overnight in This-buffered saline/Tween 20 containing 5% nonfat dry skim milk (Carnation, Los Angeles, Calif.).
(§3) Immunoreactive proteins were detected using antibodies against various kinases and phosphorylated kinases. […] Western blotting detection reagents (Amersham) and Hyper ECL luminescence detection film (Amersham) were used. […]

In assay [2] the test system is ERK1/2. The assay can be described thus: Western blotting of ERK1/2 phosphorylation in PBECs. The following applies: ML-1 100 ng/ml. How it is done:
as §1, §2, §3

Assay [3] concerns IL-8. The assay can be described thus: IL-8 expression in NHBE cells (RT-PCR and ELISA). Particulars: 100 ng/ml. The text has this:
FIGS. 3A-3C. FIG. 3A, Expression of ML-1 protein in COS-7 cells. COS-7 cells were transfected with a gene construct containing full-length ML-1 sequence and a tag sequence encoding poly (His) peptide. ML-1-His fusion proteins were purified from supernatants of the transfected cells using a His affinity column, run on an 8-16% SDS-polyacrylamide gel under reducing conditions, and analyzed by Western Blot using anti-His monoclonal antibody. Lane 1 represents a mock-transfected sample. Lane 2 represents an ML-1-transfected sample. The location of a 19.5 kd marker is indicated. FIG. 3B, Effect of ML-1 on IL-8 gene expression. Human primary bronchial epithelial cells (NHBE cells) were treated with different stimuli. The cells were harvested 4 hours after stimulation, and total RNA was extracted and subjected to RT-PCR using IL-8 and G3PDH primers. Lane 1, medium only; lane 2, cells treated with rIL-17 (100 ng/ml); lane 3, cells treated with purified His-tagged protein (Positope, 100 ng/ml); lane 4, cells treated with ML-1 (100 ng/ml). FIG. 3C, Effect of ML-1 on IL-8 protein production. NHBE cells were treated with the same stimuli used in FIG. 3B, and the supernatants were harvested 48 hours after stimulation.
Primary human bronchial epithelial (NHBE) cells were purchased from Clonetics (San Diego, Calif.) and cultured according to the manufacturer's instructions. The cells were treated with IL-17 (100 ng/ml), ML-1 (100 ng/ml), or a control His-tagged protein (Positope, 100 ng/ml; Invitrogen, Carlsbad, Calif.). The affinity-purified control His protein was dissolved in the same buffer as ML-1. Total RNA was extracted using Rneasy (Qiagen, Chatsworth, Calif.) from 1×10^6 cells 4 hours after stimulation or exchange of media. The protocol for cDNA synthesis was that described above. For PCR, the sequences of PCR primers were based on the human IL-8 cDNA sequence. The sequences of PCR primers for IL-8 were: forward, 5′-TCTGCAGCTCTGTGTGAAG-3′ (SEQ ID NO:14) and reverse, 5′-TAATTTCTGTGTTGGCGCA-3′ (SEQ ID NO:15). The amplification reaction was performed for 23 cycles with denaturation at 94° C. for 45 seconds, annealing at 56° C. for 45 seconds, and extension at 72° C. for 45 seconds PCR products were detected by ethidium bromide staining. The expected size for IL-8 was 154 basepairs. IL-8 protein levels in the collected supernatants were determined with a commercially available ELISA kit (Biosource, Camarillo, Calif.) according to the manufacturer's instructions.

B1: ML-1: new member of the IL-17 cytokine family, SEQ ID NO:2; His-tagged recombinant protein expressed in COS-7 cells and affinity purified (protein, listed as Homo sapiens)
chain: MKLDIGIINENQRVSMSRNIESRSTSPWNYTVTWDPNRYPSEVVQAQCRNLGCINAQGKEDISMNSVPIQQETLVVRRKHQGCSVSFQLEKVLVTVGCTCVTPVIHHVQ
modifications: His tag
Regarding B1, in assay [1], the “time of maximum phosphorylation of ERK1/2” value was 10 min and the “time of return of ERK1/2 phosphorylation to baseline levels” value was at most 60 min. In assay [2], the “time of maximum phosphorylation of ERK1/2” value was 20 min and the “time of return of ERK1/2 phosphorylation to baseline levels” value was at most 60 min. The IL-8 protein expression result in assay [3] (ELISA of supernatants, 48 hours) is “enhanced”. Further, in assay [3] (RT-PCR), the IL-8 transcript expression result is “enhanced”.

The values above are taken from patent publication US20060073572A1, “Cytokine structurally related to IL-17” (The Johns Hopkins University, priority 2001, published 2006).
